4 molecules from US20230365640A1 (ACADEMIA SINICA, published 2023) can be followed below.

B1: Dectin-2.Fc (CLEC6A) protein (Fc fusion)
chain: TYHFTYGETGKRLSELHSYHSSLTCFSEGTKVPAWGCCPASWKSFGSSCYFISSEEKVWSKSEQNCVEMGAHLVVFNTEAEQNFIVQQLNESFSYFLGLSDPQGNNNWQWIDKTPYEKNVRFWHLGEPNHSAEQCASIVFWKPTGWGWNDVICETRRNSICEMNKIYL
B2: CLEC5A.Fc protein (Fc fusion)
chain: PQIFNKSNDGFTTTRSYGTVSQIFGSSSPSPNGFITTRSYGTVCPKDWEFYQARCFFLSTSESSWNESRDFCKGKGSTLAIVNTPEKLKFLQDITDAEKYFIGLIYHREEKRWRWINNSVFNGNVTNQNQNFNCATIGLTKTFDAASCDISYRRICEKNAK
B3: Dectin-1.Fc (CLEC7A) protein (Fc fusion)
chain: TMAIWRSNSGSNTLENGYFLSRNKENHSQPTQSSLEDSVTPTKAVKTTGVLSSPCPPNWIIYEKSCYLFSMSLNSWDGSKRQCWQLGSNLLKIDSSNELGFIVKQVSSQPDNSFWIGLSRPQTEVPWLWEDGSTFSSNLFQIRTTATQENPSPNCVWIHVSVIYDQLCSVPSYSICEKKFSM
B4: Mincle.Fc (CLEC4F) protein (Fc fusion)
chain: RCVVTFRIFQTCDEKKFQLPENFTELSCYNYGSGSVKNCCPLNWEYFQSSCYFFSTDTISWALSLKNCSAMGAHLVVINSQEEQEFLSYKKPKMREFFIGLSDQVVEGQWQWVDGTPLTKSLSFWDVGEPNNIATLEDCATMRDSSNPRQNWNDVTCFLNYFRICEMVGINPLNKGKSL

The assay addresses recombinant SARS-CoV-2 RBD (His-tagged SARS-CoV-2 RBD fusion protein) (SARS-CoV-2, UniProt P0DTC2 328-585). Nature of the assay: ELISA.
In the case of B1, the binding result is reported as “no binding (tested: 50 µg/ml)”.
The value for B2 was “no binding (tested: 50 µg/ml)”; that for B3 was “no binding (tested: 50 µg/ml)”; that for B4 was “no binding (tested: 50 µg/ml)”.
